Assay results as given in publication PMC3687597 (Clinical and Developmental Immunology, 2013).

Target: T1, anthrax lethal factor (LF) (Bacillus anthracis, strain , UniProt P15917)
T1 construct: source: purified; produced in Dr. Nick Duesbery's lab at Van Andel Research Institute
Assay: ELISA
Details: both partners purified

T1 sequence (P15917 34-809): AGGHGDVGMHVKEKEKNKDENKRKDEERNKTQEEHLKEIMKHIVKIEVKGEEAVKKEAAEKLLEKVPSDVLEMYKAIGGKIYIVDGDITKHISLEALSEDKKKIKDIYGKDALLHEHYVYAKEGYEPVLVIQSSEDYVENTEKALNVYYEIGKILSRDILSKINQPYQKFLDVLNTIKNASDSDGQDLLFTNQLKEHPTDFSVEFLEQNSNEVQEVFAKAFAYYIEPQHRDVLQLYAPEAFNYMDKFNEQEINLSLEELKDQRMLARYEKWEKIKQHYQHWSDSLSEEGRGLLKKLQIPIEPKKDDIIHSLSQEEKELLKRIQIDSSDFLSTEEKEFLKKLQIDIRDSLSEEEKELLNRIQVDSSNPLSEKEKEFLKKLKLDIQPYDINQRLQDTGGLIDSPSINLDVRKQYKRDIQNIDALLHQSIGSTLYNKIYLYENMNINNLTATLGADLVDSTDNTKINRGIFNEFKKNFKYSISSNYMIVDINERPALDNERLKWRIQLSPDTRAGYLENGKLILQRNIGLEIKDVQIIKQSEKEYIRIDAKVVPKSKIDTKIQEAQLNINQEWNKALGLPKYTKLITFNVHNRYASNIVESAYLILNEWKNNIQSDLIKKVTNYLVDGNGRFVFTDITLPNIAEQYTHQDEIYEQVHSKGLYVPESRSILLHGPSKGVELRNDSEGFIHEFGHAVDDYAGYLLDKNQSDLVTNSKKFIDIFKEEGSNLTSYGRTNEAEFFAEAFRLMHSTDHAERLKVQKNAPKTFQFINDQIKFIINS

B1:  (Fab, V domains shown)
VH: EVQLQQSGAELVKPGASVKLSCTASGFNIKDSYMHWVKQRPEQGLEWIGRIDPANGNTKYDPKFQGKATITVDTSSNTAYLQLSSLTSEDTAVYYCTRLDYWGQGTTLTVS
VL: ENVLTQSPAIMSASLGEKVTMSCRASSSVNYMYWYQQKSDASPKLWIYSTSNLAPGVPARFSGSGSGNSYSLTISSMEGEDAATYYCQQFTSSPSALTFGAGTKLEIK
notes: also called LF8-Fab; chimeric anti-LF Fab
Ka: 3.46e+07 M⁻¹
